Measurements from patent publication US6132722A, “Recombinant antibody-enzyme fusion proteins” (Bristol-Myers Squibb Company, priority 1998, dated 2000).

Columns and labels:
[1] = test system: cell-surface antigens on SK-MEL 28 melanoma cells; assay: Fluorescence activated cell sorting competition binding assay against FITC-modified whole L49; parameters: species or system human; conditions: FACS competition assay
Description: FIG. 7 depicts a competition binding assay. 3677 cells were incubated with various combinations of the test samples (L49, L49-sFv-bL, L49-Fab'-bL, and FITC-modified whole L49, keeping the total mAb concentration (test sample+L49-FITC) constant at 400 nM. Fluorescence intensity was determined by fluorescence activated cell sorter analysis.
Competition binding experiments were performed as described by Svensson et al.(Bioconjugate Chem., 3:176-181 (1992)). Immunoassays were performed by coating polystyrene 96 well plates with sp97 (0.1 mL, 2 μg/ml in PBS, overnight, 4° C.) After blocking with specimen diluent (Genetic Systems Corp.) for 1 h at 22° C., the blocking solution was replaced with fresh specimen diluent (0.1 ml) containing serial dilutions of the samples. After 1 h at 22° C. the plates were washed, followed by development with 0.1 mL of a nitrocefin (O'Callaghan et al., Antimicrobial Agents and Chemotherapy, 1:283-288 (1972)) solution (0.1 mM in PBS/1% dimethylformamide, 15 min, 22° C. Absorbance measurements were read in an plate reader using a 490 nm filter with 630 nm as the reference wavelength.
The binding characteristics of the sFv portion of the fusion protein were determined using a fluorescent activated cell sorting competition assay in which fusion protein and FITC-modified whole L49 competed for binding to cell-surface antigens on SK-MEL 28 melanoma cells. […]

[2] = Tissue distribution of immunoconjugates in nude mice bearing s.c. 3677 melanoma xenografts; assay type: in vivo
Description: Conjugate Localization. Subcutaneous 3677 melanoma tumors were established in female athymic nu/nu mice (8-12 weeks old, Harlan Sprague-Dawley, Indianapolis, Ind.) by transplanting tumors that had been previously passaged as previously described (Kerr et al., Cancer Res., 55:3558-3563 (1995)). Tumor bearing mice were injected i.v. with L49-sFv-bL (1 or 4 mg mAb component/kg) or with L49-Fab'-bL (1.8 mg mAb component/kg). At various time intervals, the mice were anesthetized, bled through the orbital plexus, and sacrificed. Tissues were removed and homogenized in PBS containing 15 μg/ml aprotinin (2 mL/g tissue). To the homogenate was added 50 mM sodium phosphate containing 100 mM NaCl at pH 11.2 (10 ml/g tissue), and the suspension was mixed. After 20 min at room temperature, 3M sodium phosphate at pH 7.0 was added (2 ml/g tissue), and the mixture was mixed and centrifuged.
Quantification of conjugate concentrations was accomplished using a direct enzyme immunoassay. Polystyrene 96-well microtiter plates were coated with an affinity-purified rabbit polyclonal antisera to wild type E. cloacae bL (1 μg/ml), and were then blocked with specimen diluent (Genetic Systems Corp.). Serially diluted tissue extracts or purified samples (L49-sFv-bL as a standard for the fusion protein samples, L49-Fab'-bL as a standard for the L49-Fab'-bL samples) were added to the wells and allowed to bind for 3 h at room temperature. The plates were washed and developed by the addition of 0.1 ml of nitrocefin (O'Callaghan et al., Antimicrobial Agents and Chemotherapy, 1:283-288 (1972)) at 0.1 mM in PBS containing 1% dimethylformamide. Absorbance measurements were read in an ELISA plate reader using a 490 nm filter with 630 nm as the reference wavelength.
In Vivo Localization. Biodistribution studies of L49-sFv-bL and L49-Fab'-bL were carried out in nude mice bearing subcutaneous (s.c.) 3677 melanoma tumor xenografts. The conjugates were injected i.v., and at various time points tissues were removed and extracted under alkaline conditions to disrupt antigen-antibody interactions. The samples were then trapped a polyclonal antiserum to bL, and bL activity was measured using nitrocefin as a colorimetric indicator (O'Callaghan et al, Antimicrobial Agents and Chemotherapy, 1:283-288 (1972)).

B1: L49-sFv-bL: recombinant fusion protein: L49 anti-p97 single-chain Fv (VH-218 linker-VL) fused to r2-1 mutant E. cloacae β-lactamase, SEQ ID NO: 20 (protein)
chain: MKYLLPTAAAGLLLLAAQPAMAEVQLQESGPSLVKPSQTLSLTCSVTGDSITSGYWNWIRKFPGNKLEYMGYISDSGITYYNPSLKSRISITRDTSKNQYYLQLNFVTAEDTATYNCARRTLATYYAMDYWGQGTSVTVSSGSTSGSGKPGSGEGSTKGDFVMTQTPLSLPVSLGDQASISCRASQSLVHSNGNTYLHWYLQKPGQSPKLLIYRVSNRFSGVPDRFSGSGSGTDFTLKISRVEAEDLGVYFCSQSTHVPPTFGGGTKLEIKRTPVSEKQLAEVVANTITPLMKAQSVPGMAVAVIYQGKPHYYTFGKADIAANKPVTPQTLFELGSISKTFTGVLGGDAIARGEISLDDAVTRYWPQLTGKQWQGIRMLDLATYTAGGLPLQVPDEVTDNASLLRFYQNWQPQWKPGTTRLYANASIGLFGALAVKPSGMPYEQAMTTRVLKPLKLDHTWINVPKAEEAHYAWGYRDGKAVRVSPGMLDAQAYGVKTNVQDMANWVMANMAPENVADASLKQGIALAQSRYWRIGSMYQGLGWEMLNWPVEANTVVETSFGNVALAPLPVAEVNPPAPPVKASWVHKTGSTGGFGSYVAFIPEKQIGIVMLANTSYPNPARVEAAYHILEALQTSEFE
binding to the cell line in competition with FITC-modified whole L49 [1]: bound equally well
tumor/tissue ratios Blood ([2]; 1 mg/kg i.v., 4 hrs): 13
tumor/tissue ratios Kidney ([2]; 1 mg/kg i.v., 4 hrs): 41
tumor/tissue ratios Liver ([2]; 1 mg/kg i.v., 4 hrs): 52
tumor/tissue ratios Spleen ([2]; 1 mg/kg i.v., 4 hrs): 79
tumor/tissue ratios Tumor ([2]; 1 mg/kg i.v., 4 hrs): 1
tumor/tissue ratios Blood ([2]; 1 mg/kg i.v., 12 hrs): 66
tumor/tissue ratios Kidney ([2]; 1 mg/kg i.v., 12 hrs): > 177
tumor/tissue ratios Liver ([2]; 1 mg/kg i.v., 12 hrs): > 177
tumor/tissue ratios Spleen ([2]; 1 mg/kg i.v., 12 hrs): > 177
tumor/tissue ratios Tumor ([2]; 1 mg/kg i.v., 12 hrs): 1
tumor/tissue ratios Blood ([2]; 1 mg/kg i.v., 24 hrs): 105
tumor/tissue ratios Kidney ([2]; 1 mg/kg i.v., 24 hrs): > 70
tumor/tissue ratios Liver ([2]; 1 mg/kg i.v., 24 hrs): > 70
tumor/tissue ratios Spleen ([2]; 1 mg/kg i.v., 24 hrs): > 70
tumor/tissue ratios Tumor ([2]; 1 mg/kg i.v., 24 hrs): 1
tumor/tissue ratios Blood ([2]; 4 mg/kg i.v., 12 hrs): 81
tumor/tissue ratios Kidney ([2]; 4 mg/kg i.v., 12 hrs): > 240
tumor/tissue ratios Liver ([2]; 4 mg/kg i.v., 12 hrs): > 240
tumor/tissue ratios Spleen ([2]; 4 mg/kg i.v., 12 hrs): > 240
tumor/tissue ratios Tumor ([2]; 4 mg/kg i.v., 12 hrs): 1
tumor/tissue ratios Blood ([2]; 4 mg/kg i.v., 24 hrs): 141
tumor/tissue ratios Kidney ([2]; 4 mg/kg i.v., 24 hrs): > 290
tumor/tissue ratios Liver ([2]; 4 mg/kg i.v., 24 hrs): > 290
tumor/tissue ratios Spleen ([2]; 4 mg/kg i.v., 24 hrs): > 290
tumor/tissue ratios Tumor ([2]; 4 mg/kg i.v., 24 hrs): 1
tumor/tissue ratios Blood ([2]; 4 mg/kg i.v., 48 hrs): 150
tumor/tissue ratios Tumor ([2]; 4 mg/kg i.v., 48 hrs): 1
tumor to blood ratios ([2]; 4 mg/kg, 24-48 h after the conjugate was administered): 141-151
